Consider 14 molecules from CN116262786A (NANJING RONGJIEKANG BIOTECHNOLOGY CO LTD, dated 2023).

Assay [1] deals with T1, 人源重组FOLR1蛋白 (人源FOLR1重组胞外结构域蛋白) (human, UniProt P15328 25-233).
T1 construct: range 25-233; a tag is not mentioned; also called FOLR1重组蛋白; 人FOLR1
The assay is described as follows: ELISA, coated FOLR1 1 μg/mL, purified prokaryotic VHH titrated from 2 μg/mL, anti-HA-HRP. A general note: In an ELISA, binding on a coated surface is turned into a signal by an enzyme label.

The next assay concerns the target T2, 小鼠FOLR1 (小鼠 (mouse), UniProt P35846 25-232, limits assumed).
T2 construct: also called mouse FOLR1
The assay is described as follows: ELISA, coated FOLR1 of each species 1 μg/mL, VHH-hFc titrated from 2 μg/mL, goat anti-human IgG-HRP.

The target of assay [2] is T1, 人源重组FOLR1蛋白 (人源FOLR1重组胞外结构域蛋白). The assay is described as above.
Assay [3] has the same target. The assay is described as follows: ELISA of crude periplasmic extract on coated FOLR1 recombinant protein, anti-HA-HRP; positive = OD more than 5 times control.

T1 sequence (P15328 25-233 limits assumed): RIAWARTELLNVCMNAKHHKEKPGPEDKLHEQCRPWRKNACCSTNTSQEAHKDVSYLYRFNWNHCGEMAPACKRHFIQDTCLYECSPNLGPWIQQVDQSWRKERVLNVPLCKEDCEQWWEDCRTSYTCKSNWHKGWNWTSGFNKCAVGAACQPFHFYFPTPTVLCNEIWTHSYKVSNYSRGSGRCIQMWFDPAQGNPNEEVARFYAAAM
T2 sequence (P35846 25-232 limits assumed): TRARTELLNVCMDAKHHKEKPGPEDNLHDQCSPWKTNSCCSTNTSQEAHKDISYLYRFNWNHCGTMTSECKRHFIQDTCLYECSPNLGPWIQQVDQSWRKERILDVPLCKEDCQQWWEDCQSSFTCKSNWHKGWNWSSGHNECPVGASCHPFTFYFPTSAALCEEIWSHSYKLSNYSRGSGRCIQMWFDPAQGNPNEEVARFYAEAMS

B1: 单域抗体2E5 (VHH)
VHH: QVQLVESGGGSVQAGGSLRLSCAASGYPYHRVSMGWFRQAPGKEREGVAGIYTGGLYTGGSMTYYADSVKGRFTISQDNARNTVYLQMNSLKPEDTAMYYCAATPQFLIGSGLLRPDKYNSWGQGTQVTVSS
notes: Prokaryotic (E. coli) VHH from pMECS-VHH; also called VHH11; not shown: tags from vector pMECS (detected with anti-HA, purified on nickel column)
For the molecule B1, the binding result in assay [1] is on record as “binds”.

B2: 2E5-hFC1 (Fc fusion, human, not shown: a dimerising Fc or GST; small tags and cut ends)
chain: B1 VHH
notes: domain: Fc区段 (铰链区 Hinge, CH2和CH3区); VHH cloned into vector RJK-V4-hFC; also called VHH-hFc 2E5; 单域抗体2E5的Fc融合抗体
On to B2, for which the binding result (in the assay with 小鼠FOLR1; in assay [2]) was “binds” throughout.

B3: 单域抗体1D11 (VHH)
VHH: QVQLVESGGGSVQAGGSLRLSCAASGDTYSSACMDWFRQAPGKEREGVAGISSGGSTYYADSVKGRFTISRDNAKNTLYLQMNSLKPEDTAMYYCAARRVGRIPCRTMLPGLQDYWGQGTQVTVSS
notes: Prokaryotic (E. coli) VHH from pMECS-VHH; also called VHH2; not shown: tags from vector pMECS (detected with anti-HA, purified on nickel column)
In the case of B3, the binding result in assay [3] is listed as “binds”.

B4: 1D11-hFC1 (Fc fusion, human, not shown: a dimerising Fc or GST; small tags and cut ends)
chain: B3 VHH
notes: domain: Fc区段 (铰链区 Hinge, CH2和CH3区); VHH cloned into vector RJK-V4-hFC; also called VHH-hFc 1D11; 单域抗体1D11的Fc融合抗体
Consider B4, for which the binding result (with 小鼠FOLR1; in assay [2]) was “binds” each time.

B5: 单域抗体4B10 (VHH)
VHH: QVQLVESGGGLVQAGGSLRLSCTASGFTFDDYAMGWFRQAPGKEREGVSCISWNGGSTFYADSVKGRFTIVRDNAKNTVYLEMNSLKPEDTAMYYCAALAYCSGGHWSPGDLSGGYWGQGTQVTVSS
notes: Prokaryotic (E. coli) VHH from pMECS-VHH; also called VHH14; not shown: tags from vector pMECS (detected with anti-HA, purified on nickel column)
On to B5, for which, in assay [1], the binding result is recorded as “binds”.

B6: 4B10-hFC1 (Fc fusion, human, not shown: a dimerising Fc or GST; small tags and cut ends)
chain: B5 VHH
notes: domain: Fc区段 (铰链区 Hinge, CH2和CH3区); VHH cloned into vector RJK-V4-hFC; also called VHH-hFc 4B10; 单域抗体4B10的Fc融合抗体
For B6, the binding result (with 小鼠FOLR1; in assay [2]) was “binds” throughout.

B7: 单域抗体3H11 (VHH)
VHH: QVQLVESGGGSVQTGGSPRLSCAVSGHTYSRLSMGWFRQAPGKEREGVAGIYTGGPSGPMTYYADSVKGRFTISQDNAQRTVYLQMNSLKPEDTAMYYCAATPQFLIGSGLLRPDKYNSWGQGTQVTVSS
notes: Prokaryotic (E. coli) VHH from pMECS-VHH; also called VHH15; not shown: tags from vector pMECS (detected with anti-HA, purified on nickel column)
For the molecule B7, the binding result in assay [1] is recorded as “binds”.

B8: 3H11-hFC1 (Fc fusion, human, not shown: a dimerising Fc or GST; small tags and cut ends)
chain: B7 VHH
notes: domain: Fc区段 (铰链区 Hinge, CH2和CH3区); VHH cloned into vector RJK-V4-hFC; also called VHH-hFc 3H11; 单域抗体3H11的Fc融合抗体
As for B8, the binding result (in the assay with 小鼠FOLR1; in assay [2]) was “binds” in each case.

B9: 单域抗体4E11 (VHH)
VHH: QVQLVESGGGSVQAGGSLRLSCAVSGYTYSSNSMGWFRQAPGKEREGVAAIYTGGGSTYYADSVKGRFTISQDNAKNTVYLQMNSLKPEDTAMYYCAAGGPTWYDGSWSRGDEYTYWGQGTQVTVSS
notes: Prokaryotic (E. coli) VHH from pMECS-VHH; also called VHH18; not shown: tags from vector pMECS (detected with anti-HA, purified on nickel column)
As to B9, the binding result in assay [1] is recorded as “binds”.

B10: 4E11-hFC1 (Fc fusion, human, not shown: a dimerising Fc or GST; small tags and cut ends)
chain: B9 VHH
notes: domain: Fc区段 (铰链区 Hinge, CH2和CH3区); VHH cloned into vector RJK-V4-hFC; also called VHH-hFc 4E11; 单域抗体4E11的Fc融合抗体
On to B10, for which the binding result (with 小鼠FOLR1; in assay [2]) was “binds” throughout.

B11: 单域抗体2D8 (VHH)
VHH: QVQLVESGGGSVQAGGSLRLSCAASDYTYRRYCMGWFRQAPGKEREKVAAIYLGDGTTYYTDSVKGRFTISQENAKNTIYLQMNNLKPEDTAMYYCAADRSGCSVTWSYSAFEDWGQGTQVTVSS
notes: Prokaryotic (E. coli) VHH from pMECS-VHH; also called VHH8; not shown: tags from vector pMECS (detected with anti-HA, purified on nickel column)
Take B11: in assay [1], the binding result is listed as “binds”.

B12: 2D8-hFC1 (Fc fusion, human, not shown: a dimerising Fc or GST; small tags and cut ends)
chain: B11 VHH
notes: domain: Fc区段 (铰链区 Hinge, CH2和CH3区); VHH cloned into vector RJK-V4-hFC; also called VHH-hFc 2D8; 单域抗体2D8的Fc融合抗体
On to B12, for which the binding result (with 小鼠FOLR1; in assay [2]) was “binds” each time.

B13: 单域抗体3B3 (VHH)
VHH: QVQLVESGGGSVQAGGSLRLSCAASGYTYRRLSMGWFRQAPGKEREAVGGIYTGESMTYYADSVRGRFTISQDNAQNTVYLQMNSLKPEDTATYYCAATPQFLIGSGLLRPDKYDSWGQGTQVTVSS
notes: Prokaryotic (E. coli) VHH from pMECS-VHH; also called VHH4; not shown: tags from vector pMECS (detected with anti-HA, purified on nickel column)
In the case of B13, the binding result in assay [1] was “binds”.

B14: 3B3-hFC1 (Fc fusion, human, not shown: a dimerising Fc or GST; small tags and cut ends)
chain: B13 VHH
notes: domain: Fc区段 (铰链区 Hinge, CH2和CH3区); VHH cloned into vector RJK-V4-hFC; also called VHH-hFc 3B3; 单域抗体3B3的Fc融合抗体
Regarding B14, the binding result (with 小鼠FOLR1; in assay [2]) was “binds” throughout.
